Assay results: patent US20100304465

Test system: delta-plasminogen
Sequence (chain, as listed by the source mutant): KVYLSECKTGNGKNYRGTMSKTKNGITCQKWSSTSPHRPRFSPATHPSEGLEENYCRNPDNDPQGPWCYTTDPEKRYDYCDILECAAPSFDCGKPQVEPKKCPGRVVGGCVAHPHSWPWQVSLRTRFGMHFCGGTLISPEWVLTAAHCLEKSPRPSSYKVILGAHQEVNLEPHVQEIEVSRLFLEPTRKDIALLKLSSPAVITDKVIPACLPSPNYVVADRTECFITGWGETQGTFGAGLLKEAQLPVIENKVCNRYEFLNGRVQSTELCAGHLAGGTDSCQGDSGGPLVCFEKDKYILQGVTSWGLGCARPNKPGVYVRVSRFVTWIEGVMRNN

urokinase
conversion of one-chain delta-plasminogen into two-chain delta-plasmin (reduced SDS-PAGE): delta-plasminogen indeed can be activated by all three plasminogen activators
